IntAct's records for PubMed 17408621

Molecular target: ccnb2_human CCNB2 (UniProt O95067)
Chain of UniProt O95067 (O95067 whole entry): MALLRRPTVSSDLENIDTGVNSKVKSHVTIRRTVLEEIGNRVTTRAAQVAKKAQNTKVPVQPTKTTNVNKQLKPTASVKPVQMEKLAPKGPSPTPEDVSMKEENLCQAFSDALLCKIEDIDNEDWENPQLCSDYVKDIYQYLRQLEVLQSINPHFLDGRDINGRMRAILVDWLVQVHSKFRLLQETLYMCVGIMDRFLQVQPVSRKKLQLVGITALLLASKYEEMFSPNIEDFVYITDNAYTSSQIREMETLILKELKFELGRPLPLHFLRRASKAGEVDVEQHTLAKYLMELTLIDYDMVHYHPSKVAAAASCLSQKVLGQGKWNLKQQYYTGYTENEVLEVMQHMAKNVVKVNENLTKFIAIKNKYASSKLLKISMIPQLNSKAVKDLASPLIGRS

effect of a mutation on the interaction: disrupting interaction
Substance: Filamin-A (Homo sapiens), P21333 S1436G
